This is an account of results in patent publication US20250152729A1 (CANCER RESEARCH TECHNOLOGY, published 2025).

Some results are limits rather than exact numbers.

T1: recombinant cynomolgus SEMA4A AviHis10, biotinylated (cynomolgus, UniProt Q9H3S1 32-677 (human entry), biotin on the Avi tag (BirA))
T1 construct: The text says amino acids 32-679 of G7NV79 with C-terminal Avi tag and His10 tag; also called Cyno SEMA4A AviHis10; cynoSEMA4A
T1 chain: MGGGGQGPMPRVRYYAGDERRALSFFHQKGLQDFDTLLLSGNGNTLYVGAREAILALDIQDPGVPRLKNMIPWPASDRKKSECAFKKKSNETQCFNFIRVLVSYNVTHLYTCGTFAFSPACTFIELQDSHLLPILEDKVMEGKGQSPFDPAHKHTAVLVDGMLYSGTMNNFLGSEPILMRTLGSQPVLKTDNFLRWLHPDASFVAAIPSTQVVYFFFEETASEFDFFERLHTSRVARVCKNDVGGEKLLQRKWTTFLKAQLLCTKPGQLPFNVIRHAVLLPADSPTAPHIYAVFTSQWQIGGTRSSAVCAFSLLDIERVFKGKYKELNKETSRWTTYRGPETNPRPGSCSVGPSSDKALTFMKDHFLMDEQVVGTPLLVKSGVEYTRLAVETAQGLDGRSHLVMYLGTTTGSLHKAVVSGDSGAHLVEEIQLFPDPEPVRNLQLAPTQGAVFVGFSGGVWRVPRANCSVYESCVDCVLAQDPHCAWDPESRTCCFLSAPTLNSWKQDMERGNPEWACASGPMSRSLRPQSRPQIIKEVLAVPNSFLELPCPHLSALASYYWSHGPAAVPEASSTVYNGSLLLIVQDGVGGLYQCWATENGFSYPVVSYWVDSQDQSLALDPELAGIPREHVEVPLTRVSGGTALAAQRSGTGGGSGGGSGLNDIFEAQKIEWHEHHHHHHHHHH

T2: cynomolgus SEMA4A expressed on expi293 cells (UniProt ID G7NV79) (cynomolgus, UniProt Q9H3S1 33-761 (human entry))
T2 construct: Transient transfection in expi293 cells; also called cyno SEMA4A
T2 chain: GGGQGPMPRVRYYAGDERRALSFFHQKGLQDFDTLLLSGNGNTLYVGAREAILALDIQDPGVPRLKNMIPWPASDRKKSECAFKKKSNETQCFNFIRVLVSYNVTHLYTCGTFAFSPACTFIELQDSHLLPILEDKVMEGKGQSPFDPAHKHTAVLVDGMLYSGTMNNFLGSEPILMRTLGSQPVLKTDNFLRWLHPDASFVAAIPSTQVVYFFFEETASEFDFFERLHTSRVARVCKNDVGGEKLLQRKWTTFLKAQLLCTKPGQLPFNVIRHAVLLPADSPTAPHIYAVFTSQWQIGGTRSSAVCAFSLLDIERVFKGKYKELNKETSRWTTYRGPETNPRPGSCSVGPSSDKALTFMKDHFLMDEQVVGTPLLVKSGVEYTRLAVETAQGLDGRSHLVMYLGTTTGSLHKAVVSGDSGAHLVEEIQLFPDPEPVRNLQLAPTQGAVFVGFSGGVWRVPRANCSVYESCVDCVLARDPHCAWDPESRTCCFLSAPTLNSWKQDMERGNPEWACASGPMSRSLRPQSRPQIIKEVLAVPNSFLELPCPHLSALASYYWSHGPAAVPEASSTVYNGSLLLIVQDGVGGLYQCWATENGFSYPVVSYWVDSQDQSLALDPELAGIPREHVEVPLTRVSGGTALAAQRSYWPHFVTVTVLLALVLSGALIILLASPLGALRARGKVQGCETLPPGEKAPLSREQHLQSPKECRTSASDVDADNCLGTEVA

B1: C0120905 human Alya IgG1 (antibody, V domains shown)
VH: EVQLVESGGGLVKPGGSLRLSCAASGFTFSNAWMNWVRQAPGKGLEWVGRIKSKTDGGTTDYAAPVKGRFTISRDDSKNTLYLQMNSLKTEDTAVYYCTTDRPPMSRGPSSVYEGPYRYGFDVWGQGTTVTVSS
VL: NFMLTQPHSVSESPGKTVTISCTGSGGNIVDNFVQWHQQRPGSAPRTVIYEDDQRPSGVPDRFSASVDSSSNSGTLSISGLKTEDEADYYCQSYDGANRWVFGGGTKLTVL
notes: Fully human, phage display derived; human IgG1 Alya constant (239iCys, S442C, EU); unconjugated
B2: mouse 5E3 expressed as human IgG1 Alya (antibody, V domains shown)
VH: QVQLQQPGAELVMPGASVKMSCKASGYTFTDYWMHWVKQRPGQGLEWIGAIDTSDSYTSYNQKFKGKATLTVDESSSTAYMQLSSLTSEDSAVYYCARDYGNFYYYAMDYWGQGTSVTVSS
VL: QAVVTQESALTTSPGETVTLTCRSSTGAVTTSNYANWVQEKPDHLFTGLIGGTNNRAPGVPARFSGSLIGDKAALTITGAQTEDEAIYFCALWYSNHWVFGGGTKLTVL
notes: Mouse variable domains on human IgG1 Alya constant (pEU1.22; 239iCys and S442C, EU numbering); purified, unconjugated; also called 5E3 IgG1 Alya
B3: 5Hg2-5Lg1 human Alya IgG1 (antibody, V domains shown)
VH: QVQLVQSGAEVKKPGASVKVSCKASGYTFTDYWMHWVRQAPGQRLEWMGAIDTSDSYTSYNQKFKGRVTITRDTSASTAYMELSSLRSEDTAVYYCARDYGNFYYYAMDYWGQGTLVTVSS
VL: QAVVTQEPSLTVSPGGTVTLTCRSSTGAVTTSNYANWFQQKPGQAPRTLIYGTNNRAPWTPARFSGSLLGGKAALTLSGAQPEDEAEYYCALWYSNHWVFGGGTKLTVL
notes: Humanised 5E3; human IgG1 Alya constant (239iCys, S442C, EU), lambda light chain; purified, unconjugated
B4: 5Hg2-5Lg6 human Alya IgG1 (antibody, V domains shown)
VH: QVQLVQSGAEVKKPGASVKVSCKASGYTFTDYWMHWVRQAPGQRLEWMGAIDTSDSYTSYNQKFKGRVTITRDTSASTAYMELSSLRSEDTAVYYCARDYGNFYYYAMDYWGQGTLVTVSS
VL: SYELTQPSSVSVSPGQTARITCRSSTGAVTTSNYANWFQQKPGQAPVLVIYGTNNRAPGIPERFSGSSSGTTVTLTISGAQVEDEADYYCALWYSNHWVFGGGTKLTVL
notes: as for B3
B5: 5Hg2-5Lg3 human Alya IgG1 (antibody, V domains shown)
VH: QVQLVQSGAEVKKPGASVKVSCKASGYTFTDYWMHWVRQAPGQRLEWMGAIDTSDSYTSYNQKFKGRVTITRDTSASTAYMELSSLRSEDTAVYYCARDYGNFYYYAMDYWGQGTLVTVSS
VL: QTVVTQEPSFSVSPGGTVTLTCRSSTGAVTTSNYANWYQQTPGQAPRTLIYGTNNRAPGVPDRFSGSILGNKAALTITGAQADDESDYYCALWYSNHWVFGGGTKLTVL
notes: as for B3
B6: 5Hg4-5Lg1 human Alya IgG1 (antibody, V domains shown)
VH: QVQLVQSGSELKKPGASVKVSCKASGYTFTDYWMHWVRQAPGQGLEWMGAIDTSDSYTSYNQKFKGRFVFSLDTSVSTAYLQICSLKAEDTAVYYCARDYGNFYYYAMDYWGQGTLVTVSS
VL: QAVVTQEPSLTVSPGGTVTLTCRSSTGAVTTSNYANWFQQKPGQAPRTLIYGTNNRAPWTPARFSGSLLGGKAALTLSGAQPEDEAEYYCALWYSNHWVFGGGTKLTVL
notes: as for B3
B7: 5Hg5-5Lg2 human Alya IgG1 (antibody, V domains shown)
VH: EVQLVQSGAEVKKPGESLRISCKGSGYSFTDYWMHWVRQMPGKGLEWMGAIDTSDSYTSYNQKFKGQVTISADKSISTAYLQWSSLKASDTAMYYCARDYGNFYYYAMDYWGQGTLVTVSS
VL: QAVVTQEPSLTVSPGGTVTLTCRSSTGAVTTSNYANWFQQKPGQAPRTLIYGTNNRAPWTPARFSGSLLGGKAALTLLGAQPEDEAEYYCALWYSNHWVFGGGTKLTVL
notes: Humanised 5E3; human IgG1 Alya constant (239iCys, S442C, EU), lambda light chain; purified, unconjugated; also called 5HE5/5Lg2
B8: 5Hg1-5Lg1 human Alya IgG1 (antibody, V domains shown)
VH: QVQLVQSGAEVKKPGASVKVSCKASGYTFTDYWMHWVRQAPGQGLEWMGAIDTSDSYTSYNQKFKGRVTMTRDTSTSTVYMELSSLRSEDTAVYYCARDYGNFYYYAMDYWGQGTLVTVSS
VL: QAVVTQEPSLTVSPGGTVTLTCRSSTGAVTTSNYANWFQQKPGQAPRTLIYGTNNRAPWTPARFSGSLLGGKAALTLSGAQPEDEAEYYCALWYSNHWVFGGGTKLTVL
notes: as for B3
B9: 5Hg4-5Lg2 human Alya IgG1 (antibody, V domains shown)
VH: QVQLVQSGSELKKPGASVKVSCKASGYTFTDYWMHWVRQAPGQGLEWMGAIDTSDSYTSYNQKFKGRFVFSLDTSVSTAYLQICSLKAEDTAVYYCARDYGNFYYYAMDYWGQGTLVTVSS
VL: QAVVTQEPSLTVSPGGTVTLTCRSSTGAVTTSNYANWFQQKPGQAPRTLIYGTNNRAPWTPARFSGSLLGGKAALTLLGAQPEDEAEYYCALWYSNHWVFGGGTKLTVL
notes: as for B3
B10: 5Hg2-5Lg2 human Alya IgG1 (antibody, V domains shown)
VH: QVQLVQSGAEVKKPGASVKVSCKASGYTFTDYWMHWVRQAPGQRLEWMGAIDTSDSYTSYNQKFKGRVTITRDTSASTAYMELSSLRSEDTAVYYCARDYGNFYYYAMDYWGQGTLVTVSS
VL: QAVVTQEPSLTVSPGGTVTLTCRSSTGAVTTSNYANWFQQKPGQAPRTLIYGTNNRAPWTPARFSGSLLGGKAALTLLGAQPEDEAEYYCALWYSNHWVFGGGTKLTVL
notes: as for B3
B11: 5Hg1-5Lg2 human Alya IgG1 (antibody, V domains shown)
VH: QVQLVQSGAEVKKPGASVKVSCKASGYTFTDYWMHWVRQAPGQGLEWMGAIDTSDSYTSYNQKFKGRVTMTRDTSTSTVYMELSSLRSEDTAVYYCARDYGNFYYYAMDYWGQGTLVTVSS
VL: QAVVTQEPSLTVSPGGTVTLTCRSSTGAVTTSNYANWFQQKPGQAPRTLIYGTNNRAPWTPARFSGSLLGGKAALTLLGAQPEDEAEYYCALWYSNHWVFGGGTKLTVL
notes: as for B3
B12: 5Hg4-5Lg5 human Alya IgG1 (antibody, V domains shown)
VH: QVQLVQSGSELKKPGASVKVSCKASGYTFTDYWMHWVRQAPGQGLEWMGAIDTSDSYTSYNQKFKGRFVFSLDTSVSTAYLQICSLKAEDTAVYYCARDYGNFYYYAMDYWGQGTLVTVSS
VL: QSVVTQPPSVSGAPGQRVTISCRSSTGAVTTSNYANWYQQLPGTAPKLLIYGTNNRAPGVPDRFSGSKSGASASLAITGLQAEDEADYYCALWYSNHWVFGGGTKLTVL
notes: as for B3
B13: 5Hg4-5Lg4 human Alya IgG1 (antibody, V domains shown)
VH: QVQLVQSGSELKKPGASVKVSCKASGYTFTDYWMHWVRQAPGQGLEWMGAIDTSDSYTSYNQKFKGRFVFSLDTSVSTAYLQICSLKAEDTAVYYCARDYGNFYYYAMDYWGQGTLVTVSS
VL: QSALTQPPSVSGSPGQSVTISCRSSTGAVTTSNYANWYQQPPGTAPKLMIYGTNNRAPGVPDRFSGSKSGNTASLTISGLQAEDEADYYCALWYSNHWVFGGGTKLTVL
notes: as for B3

The target in the first test is T1, recombinant cynomolgus SEMA4A AviHis10, …. As to the kind of experiment: BLI (OctetRED), biotinylated SEMA4A on streptavidin tip, IgG as analyte, 1:1 model; KD(observed) IgG. As to the method: An Octet Kinetics buffer (PBS containing 0.01% (v/v) BSA and 0.002% (v/v) Tween20) is typically used as the diluent buffer for the analyte samples and as the flow buffer during the dissociation phase. The experimental data is recorded as shift in interference pattern (nm) over time, which is directly proportional to the optical thickness at the biosensor tip, which in turn is an approximate measure of the mass of analyte bound. The proprietary Octet Data Analysis software package can then be used to process data and fit binding models to the data sets. Returned association (ka, M-1 s-1) and dissociation (kd, s-1) rate constants allow calculation of dissociation (KD, M) affinity constants.
The affinity of binding between the analytes (humanised and phage display derived IgGs as human Alya IgG1s and Fabs) and human SEMA4A and cynomolgus SEMA4A, was estimated using assays in which the biotinylated SEMA4A antigen was captured on a streptavidin sensor tip. A fresh sensor tip was used for each measurement and no regeneration was used. A series of dilutions of the lead Fabs and human Alya IgG1s (3.25-240 nM) were individually placed in contact with the ligand surface for a sufficient amount of time to observe sensorgrams that could be fitted to an appropriate binding model with confidence (typically 5 minutes), followed by an appropriate length of dissociation time (typically 10 minutes). Blank reference (0 nM analyte) data were subtracted from each dataset to reduce the impact of any buffer artefacts or non-specific binding effects. A 1:1 binding model was then fitted simultaneously to the data from each analyte titration using the Octet Evaluation software (Table 8).
In the case of B1, the Kd was 9 nM.
As for B2, the Kd was ≤ 1 nM.

For the next test, the target named is T2, cynomolgus SEMA4A expressed on expi293 …. Nature of the test: Mirrorball direct binding, dilution series on expi293 cells transiently transfected with cyno SEMA4A, anti-human Alexa Fluor 647. The text has this:
Hits from the primary screening were re-formatted into the human Alya IgG1 vector and re-expressed and purified as described in section 4.1. In addition, a single clone was identified that contained an Asparagine deamidation motif (Asn Gly) within its VHCDR2. This potential sequence liability was de-risked by synthesising de novo two clonal variant VH genes (Asn Ala and Gln Gly) and cloning these sequences into the human Alya IgG1 expression vector. To determine the specificity profile of each purified human Alya IgG1, a dilution series was tested for binding to human SEMA4A, mouse SEMA4A, cyno SEMA4A, human SEMA4B and mock transfected cells (transient transfections set up in expi 293 cells.) The five assays employed methods described in section 2.3, using the appropriate cells and substituting the un-purified scFv periplasmic preparation with the recombinant human Alya IgG1 dilution series. Data was analysed as Count x median mean intensity (x FLU).
In the case of B3, the binding result is “binds”.
Turning to B4, the binding result is “binds”.
In the case of B5, the binding result was “binds”.
On to B6, for which the binding result is recorded as “binds”.
On the same count and under the same terms, the value for B7 was “binds”; that for B8 was “binds”; that for B9 was “binds”.
In the case of B10, the binding result is “binds”.
On the same count and under the same terms, the value for B11 was “binds”; that for B12 was “binds”; that for B13 was “binds”.
